Experimental data as given in the RNAGym collection of RNA variant scans (doi:10.1021/acssynbio.7b00057).

B1: Pistol ribozyme (parent)
chain: GGGUCGUUGUUCCAUAAUCGCGUGGAUAUGGCACGCAAGUUUCUACCGGGCACCGUAAAUGUCCGACUGGAGCCGUUCGGGCGGCUAUAAACAGACCUCAGGCCCGAAGCGUGGCGGCACCUGCCGCCGGUGGUAAAAAAGAUCGGAAGAGCACACGUCU

Variants of: B1
Assay: aptazyme ON/OFF ratio, guanine; higher = stronger switching; co-transcriptional cleavage with and without guanine

| Variant | aptazyme ON/OFF ratio |
| --- | --- |
| GGGUCGCAUAUCUAUAAUCGCGUGGAUAUGGCACGCAAGUUUCUACCGGGCACCGUAAAUGUCCGACUGGAGCCGUUCGGGCGGCUAUAAACAGACCUCAGGCCCGAAGCGUGGCGGCACCUGCCGCCGGUGGUAAAAAAGAUCGGAAGAGCACACGUCU [U7C U8A G9U U10A C13U] | 1.19 |
| GGGUCGGGUGACGAUAAUCGCGUGGAUAUGGCACGCAAGUUUCUACCGGGCACCGUAAAUGUCCGACUGGAGCCGUUCGGGCGGCUAUAAACAGACCUCAGGCCCGAAGCGUGGCGGCACCUGCCGCCGGUGGUAAAAAAGAUCGGAAGAGCACACGUCU [U7G U8G G9U U10G U11A C13G] | 1.16 |
| GGGUCGGUAGUAGAUAAUCGCGUGGAUAUGGCACGCAAGUUUCUACCGGGCACCGUAAAUGUCCGACUGGAGCCGUUCGGGCGGCUAUAAACAGACCUCAGGCCCGAAGCGUGGCGGCACCUGCCGCCGGUGGUAAAAAAGAUCGGAAGAGCACACGUCU [U7G G9A U10G C12A C13G] | 1.15 |
| GGGUCGCGUUAGCAUAAUCGCGUGGAUAUGGCACGCAAGUUUCUACCGGGCACCGUAAAUGUCCGACUGGAGCCGUUCGGGCGGCUAUAAACAGACCUCAGGCCCGAAGCGUGGCGGCACCUGCCGCCGGUGGUAAAAAAGAUCGGAAGAGCACACGUCU [U7C U8G G9U U11A C12G] | 1.18 |
| GGGUCGGUGAGGCAUAAUCGCGUGGAUAUGGCACGCAAGUUUCUACCGGGCACCGUAAAUGUCCGACUGGAGCCGUUCGGGCGGCUAUAAACAGACCUCAGGCCCGAAGCGUGGCGGCACCUGCCGCCGGUGGUAAAAAAGAUCGGAAGAGCACACGUCU [U7G U10A U11G C12G] | 1.21 |
| GGGUCGGCCGCCAAUAAUCGCGUGGAUAUGGCACGCAAGUUUCUACCGGGCACCGUAAAUGUCCGACUGGAGCCGUUCGGGCGGCUAUAAACAGACCUCAGGCCCGAAGCGUGGCGGCACCUGCCGCCGGUGGUAAAAAAGAUCGGAAGAGCACACGUCU [U7G U8C G9C U10G U11C C13A] | 1.15 |
| GGGUCGCUUAGAGAUAAUCGCGUGGAUAUGGCACGCAAGUUUCUACCGGGCACCGUAAAUGUCCGACUGGAGCCGUUCGGGCGGCUAUAAACAGACCUCAGGCCCGAAGCGUGGCGGCACCUGCCGCCGGUGGUAAAAAAGAUCGGAAGAGCACACGUCU [U7C G9U U10A U11G C12A C13G] | 1.1 |
| GGGUCGGAGUACUAUAAUCGCGUGGAUAUGGCACGCAAGUUUCUACCGGGCACCGUAAAUGUCCGACUGGAGCCGUUCGGGCGGCUAUAAACAGACCUCAGGCCCGAAGCGUGGCGGCACCUGCCGCCGGUGGUAAAAAAGAUCGGAAGAGCACACGUCU [U7G U8A U11A C13U] | 1.4 |
| GGGUCGUGAUUCCAUAAUCGCGUGGAUAUGGCACGCAAGUUUCUACCGGGCACCGUAAAUGUCCGACUGGAGCCGUUCGGGCGGCUAUAAACAGACCUCAGGCCCGAAGCGUGGCGGCACCUGCCGCCGGUGGUAAAAAAGAUCGGAAGAGCACACGUCU [U8G G9A] | 1.64 |
| GGGUCGGCAUUUCAUAAUCGCGUGGAUAUGGCACGCAAGUUUCUACCGGGCACCGUAAAUGUCCGACUGGAGCCGUUCGGGCGGCUAUAAACAGACCUCAGGCCCGAAGCGUGGCGGCACCUGCCGCCGGUGGUAAAAAAGAUCGGAAGAGCACACGUCU [U7G U8C G9A C12U] | 1.07 |
| GGGUCGCGGAAUGAUAAUCGCGUGGAUAUGGCACGCAAGUUUCUACCGGGCACCGUAAAUGUCCGACUGGAGCCGUUCGGGCGGCUAUAAACAGACCUCAGGCCCGAAGCGUGGCGGCACCUGCCGCCGGUGGUAAAAAAGAUCGGAAGAGCACACGUCU [U7C U8G U10A U11A C12U C13G] | 1.12 |
| GGGUCGUGGCAAAAUAAUCGCGUGGAUAUGGCACGCAAGUUUCUACCGGGCACCGUAAAUGUCCGACUGGAGCCGUUCGGGCGGCUAUAAACAGACCUCAGGCCCGAAGCGUGGCGGCACCUGCCGCCGGUGGUAAAAAAGAUCGGAAGAGCACACGUCU [U8G U10C U11A C12A C13A] | 1.16 |
| GGGUCGGAUCGAGAUAAUCGCGUGGAUAUGGCACGCAAGUUUCUACCGGGCACCGUAAAUGUCCGACUGGAGCCGUUCGGGCGGCUAUAAACAGACCUCAGGCCCGAAGCGUGGCGGCACCUGCCGCCGGUGGUAAAAAAGAUCGGAAGAGCACACGUCU [U7G U8A G9U U10C U11G C12A C13G] | 1.05 |
| GGGUCGUAAGAGUAUAAUCGCGUGGAUAUGGCACGCAAGUUUCUACCGGGCACCGUAAAUGUCCGACUGGAGCCGUUCGGGCGGCUAUAAACAGACCUCAGGCCCGAAGCGUGGCGGCACCUGCCGCCGGUGGUAAAAAAGAUCGGAAGAGCACACGUCU [U8A G9A U10G U11A C12G C13U] | 1.12 |
| GGGUCGAAUCUGGAUAAUCGCGUGGAUAUGGCACGCAAGUUUCUACCGGGCACCGUAAAUGUCCGACUGGAGCCGUUCGGGCGGCUAUAAACAGACCUCAGGCCCGAAGCGUGGCGGCACCUGCCGCCGGUGGUAAAAAAGAUCGGAAGAGCACACGUCU [U7A U8A G9U U10C C12G C13G] | 1.35 |
| GGGUCGUUCUAGAAUAAUCGCGUGGAUAUGGCACGCAAGUUUCUACCGGGCACCGUAAAUGUCCGACUGGAGCCGUUCGGGCGGCUAUAAACAGACCUCAGGCCCGAAGCGUGGCGGCACCUGCCGCCGGUGGUAAAAAAGAUCGGAAGAGCACACGUCU [G9C U11A C12G C13A] | 1.2 |
| GGGUCGGUUGAACAUAAUCGCGUGGAUAUGGCACGCAAGUUUCUACCGGGCACCGUAAAUGUCCGACUGGAGCCGUUCGGGCGGCUAUAAACAGACCUCAGGCCCGAAGCGUGGCGGCACCUGCCGCCGGUGGUAAAAAAGAUCGGAAGAGCACACGUCU [U7G G9U U10G U11A C12A] | 1.15 |
| GGGUCGCUCGCAGAUAAUCGCGUGGAUAUGGCACGCAAGUUUCUACCGGGCACCGUAAAUGUCCGACUGGAGCCGUUCGGGCGGCUAUAAACAGACCUCAGGCCCGAAGCGUGGCGGCACCUGCCGCCGGUGGUAAAAAAGAUCGGAAGAGCACACGUCU [U7C G9C U10G U11C C12A C13G] | 1.09 |
